# Data: the supplement of paper PMC10567573
# B1: ELF3 (parent)
# chain: LSKEYWDCLEGKKSKHAPRGTHLW
# Variants of: B1
# Test: protein stability index of a GFP-peptide fusion (GPS, HEK-293T) (PSI 1-6); higher = more stable
# Details: c terminus: a fixed tail appended
# 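Also: lentivirally expressed fusions sorted by FACS into six bins by GFP to DsRed ratio, PSI derived from sequencing read proportions per bin multiplied by bin number.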
row,Variant,protein stability index
1,LSKEYWDCLEGKKSKHVPRGTHLW,3.02
2,LSKEYWDCLEGKKSKHRPRGTHLW,2.38
3,LSKEYWDCLEGKKSKHMPRGTHLW,3.06
4,LSKEYWDCLEGKKSKHQPRGTHLW,3.4
5,LSKEYWDCLEGKKSKHEPRGTHLW,3.58
6,LSKEYWDCLEGKKSKHKPRGTHLW,2.86
7,LSKEYWDCLEGKKSKHDPRGTHLW,2.69
8,LSKEYWDCLEGKKSKHGPRGTHLW,3.65
9,LSKEYWDCLEGKKSKHLPRGTHLW,2.45
10,LSKEYWDCLEGKKSKHNPRGTHLW,2.99
11,LSKEYWDCLEGKKSKHTPRGTHLW,2.86
12,LSKEYWDCLEGKKSKHWPRGTHLW,2.4
13,LSKEYWDCLEGKKSKHFPRGTHLW,2.78
14,LSKEYWDCLEGKKSKHIPRGTHLW,3.06
15,LSKEYWDCLEGKKSKHSPRGTHLW,3.12
16,LSKEYWDCLEGKKSKHPPRGTHLW,3.21
17,LSKEYWDCLEGKKSKHCPRGTHLW,3.33
18,LSKEYWDCLEGKKSKHHPRGTHLW,2.5
19,LSKEYWDCLEGKKSKHYPRGTHLW,2.65
20,LSKEYWDCLEGKKSKHAPRGIHLW,2.19
21,LSKEYWDCLEGKKSKHAPRGSHLW,2.24
22,LSKEYWDCLEGKKSKHAPRGVHLW,1.8
23,LSKEYWDCLEGKKSKHAPRGDHLW,3.45
24,LSKEYWDCLEGKKSKHAPRGHHLW,2.66

row,Variant,protein stability index
1,LSKEYWDCLEGKKSKHAPRGPHLW,2.57
2,LSKEYWDCLEGKKSKHAPRGEHLW,3.37
3,LSKEYWDCLEGKKSKHAPRGQHLW,2.78
4,LSKEYWDCLEGKKSKHAPRGNHLW,3.1
5,LSKEYWDCLEGKKSKHAPRGCHLW,2.22
6,LSKEYWDCLEGKKSKHAPRGWHLW,2.04
7,LSKEYWDCLEGKKSKHAPRGLHLW,2.02
8,LSKEYWDCLEGKKSKHAPRGAHLW,3.4
9,LSKEYWDCLEGKKSKHAPRGFHLW,2.05
10,LSKEYWDCLEGKKSKHAPRGKHLW,3.08
11,LSKEYWDCLEGKKSKHAPRGRHLW,2.78
12,LSKEYWDCLEGKKSKHAPRGGHLW,2.54
13,LSKEYWDCLEGKKSKHAPRGMHLW,2.32
14,LSKEYWDCLEGKKSKHARRGTHLW,2.34
15,LSKEYWDCLEGKKSKHAIRGTHLW,2.6
16,LSKEYWDCLEGKKSKHAFRGTHLW,2.97
17,LSKEYWDCLEGKKSKHADRGTHLW,3
18,LSKEYWDCLEGKKSKHAWRGTHLW,2.24
19,LSKEYWDCLEGKKSKHAGRGTHLW,2.46
20,LSKEYWDCLEGKKSKHATRGTHLW,3.16
21,LSKEYWDCLEGKKSKHAVRGTHLW,2.79
22,LSKEYWDCLEGKKSKHACRGTHLW,2.53
23,LSKEYWDCLEGKKSKHASRGTHLW,3.13
24,LSKEYWDCLEGKKSKHAKRGTHLW,3.39

row,Variant,protein stability index
1,LSKEYWDCLEGKKSKHAMRGTHLW,2.31
2,LSKEYWDCLEGKKSKHAERGTHLW,3.01
3,LSKEYWDCLEGKKSKHAARGTHLW,2.68
4,LSKEYWDCLEGKKSKHALRGTHLW,2.43
5,LSKEYWDCLEGKKSKHAYRGTHLW,2.73
6,LSKEYWDCLEGKKSKHAQRGTHLW,2.96
7,LSKEYWDCLEGKKSKHAHRGTHLW,3.24
8,LSKEYWDCLEGKKSKHANRGTHLW,3.36
9,LSKEYWDCLEGKKSKHAPRPTHLW,2.72
10,LSKEYWDCLEGKKSKHAPRLTHLW,2.55
11,LSKEYWDCLEGKKSKHAPRDTHLW,2.96
12,LSKEYWDCLEGKKSKHAPRYTHLW,2.78
13,LSKEYWDCLEGKKSKHAPRITHLW,1.54
14,LSKEYWDCLEGKKSKHAPRWTHLW,1.94
15,LSKEYWDCLEGKKSKHAPRQTHLW,3.06
16,LSKEYWDCLEGKKSKHAPRATHLW,2.45
17,LSKEYWDCLEGKKSKHAPRSTHLW,3.15
18,LSKEYWDCLEGKKSKHAPRRTHLW,2.64
19,LSKEYWDCLEGKKSKHAPRFTHLW,1.75
20,LSKEYWDCLEGKKSKHAPRTTHLW,2.64
21,LSKEYWDCLEGKKSKHAPRNTHLW,2.74
22,LSKEYWDCLEGKKSKHAPRMTHLW,2.44
23,LSKEYWDCLEGKKSKHAPRETHLW,2.59
24,LSKEYWDCLEGKKSKHAPRHTHLW,2.53

row,Variant,protein stability index
1,LSKEYWDCLEGKKSKHAPRCTHLW,2.73
2,LSKEYWDCLEGKKSKHAPRKTHLW,2.59
3,LSKEYWDCLEGKKSKHAPRVTHLW,2.11
4,LSKEYWDCLEGKKSKHAPLGTHLW,2.27
5,LSKEYWDCLEGKKSKHAPDGTHLW,3.21
6,LSKEYWDCLEGKKSKHAPQGTHLW,3.79
7,LSKEYWDCLEGKKSKHAPVGTHLW,2.78
8,LSKEYWDCLEGKKSKHAPHGTHLW,2.66
9,LSKEYWDCLEGKKSKHAPCGTHLW,2.6
10,LSKEYWDCLEGKKSKHAPSGTHLW,3.29
11,LSKEYWDCLEGKKSKHAPEGTHLW,3.63
12,LSKEYWDCLEGKKSKHAPTGTHLW,2.85
13,LSKEYWDCLEGKKSKHAPFGTHLW,2.25
14,LSKEYWDCLEGKKSKHAPGGTHLW,2.68
15,LSKEYWDCLEGKKSKHAPWGTHLW,2.58
16,LSKEYWDCLEGKKSKHAPIGTHLW,2.38
17,LSKEYWDCLEGKKSKHAPNGTHLW,2.83
18,LSKEYWDCLEGKKSKHAPPGTHLW,2.64
19,LSKEYWDCLEGKKSKHAPMGTHLW,2.83
20,LSKEYWDCLEGKKSKHAPYGTHLW,2.18
21,LSKEYWDCLEGKKSKHAPAGTHLW,3.06
22,LSKEYWDCLEGKKSKHAPKGTHLW,3.06
